Measurements reported in the domain aggregation screens of Martell et al. (2025).

Test: soluble fraction after stress (log2 fold change); higher = more stays soluble; pooled small domains, quantitative proteomics
Conditions: stress: 50 degC
Summary of the method: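 Pooled custom libraries of small protein domains were measured in a high-throughput format, with quantitative proteomics as the read-out. Each library was stressed at 50°C. Aggregation propensity is given as the base-two logarithm of the fold change in how much of each protein stays soluble after the stress. Higher values mean a larger share of the protein remains in solution.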

Sequence	soluble fraction (log2)
HMNEIYHQIKVDNVSDDDISLFQYSGIEFDHADYRRGEYIEFAISNRDLSILNNLGYEYQVVHH	-0.757
HMDGRVQATAEKLRAALDRLARSSVGSPMIERQLTVAALAREARVGRNAIYANHRDILDELIRVRQQRRA	0.144
HMPATPDATVQAVQQRLNELGYDVGSADGLMGRGTRSAIIAFQQDRGLAATGVADQALLLQLQP	0.208
HMSASTGTVSYKSGATTVWNSPSWHQVKRYVTFGDTVQLLGKTVDQNGATWYKVGDNQWIPELYLNVAG	-0.508
HMETLKLRDSGKEVQSLQELLQRQGLSAPMNGIFDEATKSSVIAFQKANGLDADGIVGYKSWETLFTAG	0.132
HMGIILDWELFEQFADKLKRKKVDFVIEPYLRFEGRRGEQSTLFIKDPSGNYLEFKAFKNIDMLFEK	-0.874
HMNDYIGVDRAKEIALNHARMNESDVQFAKAKLENDDGVVEYEIEFYFGRTEYDYTIDAVSGNIIEYDVEY	-1.05
HMSGLGELTPRELEVLELMAQGLSNSQIAGRLFLSGAAVAKHVSSIFSKLGFEPGDENRRVRAILAFLNR	-0.422
HMNGIFEYSDAKKVPSLVEIENAYRRARVNGAEKFAVIINGEYFGYNPQKRGIYKLNDGEYQIL	-0.0706
HMDIDLGAVEEQAVKGSGPGGQKMNKTSSGVLLRYRLGEELVLVKWTRERQHSLNRFLALRELVDEIEAR	≥ 0.62
HMGMVKLNEEYLEKVKKHRKELHITQLQISKKLGWSLSRYQRFESGFYKEIEDDAPKKIKEEFGIDYSLL	-0.976
HMAEAPGSVELLAERLRPWWEIHGGEWGSKTKALRFLFGDQAPVAGSYWRALEAAIAQIESTT	-0.16
HMKVTRWEDTGMKPAEAQEWQHYDFKPQEAMNWRDAGFVPLVARTWSDKGFDASEAQAWRDSVRNS	-0.19
HMVTDVDYSTFLSQVEEGKVESVTIEDGEILFKGKDENGEARWYITGEMNDPNLVERLKDKVPSFNAPA	0.0853
HMETGGLAQEAERELALLQEQIAHHEALYRKGTPEISDGAFDELFDRYQELADSLGVPADERIDRA	-0.0378
HMNEDDQLLKVLLAEPLRLEELYNLDLKPQGPYNLQTWIMVHLTELERDGLIARFPDGRYGPAR	-1.36
HMDAATDAIKAEVRALLEMANAQGIDTESIMLEAHEQTRNATEQDYYEAAKSALEAAIAGSNRDR	0.0377
HMDSHSAESVRQRIKDMIAAEASKSILSDDTIVENLKSEGIEIARRTVAKYRESLNIPSSIQRRRIARSEA	-0.0963
HMSDESALLELVKQIIADNPKAVEEIRAGKEKAMGFLIGQAMKASRGSANPQIISRLVREQLG	0.128

Sequence	soluble fraction (log2)
HMATSNGEFVIPDGGLQFEELERSLLMQALKKSGGSQTGAARLLGLSRDTLRYRLEKFGIDAAAVRE	-0.165
HMNREENIQIGRDLLERELRKQGMDLQENLRQEVLLDGAKKLGFNNTDDLLAAIGDLKVTPAMFIGKIA	0.0695
HMDDISLEEIKYISSKLETKVNEIEELLVRYYDGETNEAEEKELKEFFAQADVPAHLLAEKRLFMQLASQ	-0.0772
HMNDLIFSTLAEYDRDTITEIISVVDNTRGIGYEVELVRKDLIAMAAQAEARRDYLPSVIGDVEVFKRNLL	0.0286
HMTETNSVTINERLTLYRRSRSGRWQARVKLNTGEWHRFSTGTADFEKAKESAHRELHNVGFRAENNLPQ	-0.598
HMQARLPFSFAKRHGVILLAATGEGQSDVIYKSGFDIGALAEVRRFVAGEIALKEVDGPSFDRQLTLTYQN	-1.77
HMDMRLADLIGRDGITITFMRPSGKVEIDGEIYDAVSDVGLIDKNEEVEVIKFENAQLVVTKKNKN	-0.0621
HMELLPFEFARANRVLLRVNESDLVVSPDANHSAVTEILRLNNNIETIKSVDAEAFDKILSSIYSG	-0.765
HMLDFGQEDSEAVSEIILVLGRYWMDFSHKKYPEAEGSALRHKGISHIFTVLKPYLTSATAQLIEQRLQQ	0.00235
HMDTLKDFISGVSIVFENKYSVGDNVTIGDFRGDVIELGMKTTKIRAYTGEVLIIPNHLVEKVINH	-1.51
HMIENMQEYVRHIRAAVSDRLDLTREVEDDEIREVISQIVAEESRQNYLSLGERQTVIETVFNSMR	-0.2
HMIGDNNELFQKAQLTPREKEVALLLLQGETNSDIAKILYVGLSTVKKHISSIFEKTKVKSRTEFISKVR	-0.803
HMEAPMPIFWRPQFRIGHDDIDADHRYLILLINTVELVLRFPDDPRNVELALTELRRYAEDHFEREER	-0.161
HMYGTERILAQLANYGIPNKLAFQIQDFYKEETLQIVEQQPYRLVEDIQGMGFKIADQLAEELGI	-0.317
HMDEIDYSKYSITTSNRIINIDGVQSKVELFDVSGRSIQSTMVTGKFSSRPLNAGFYIIHVDGYSVKVSV	-0.889
HMSSWMTKDGKIKPISKWAGVPMTSQQQADYAAGKVVELTNIPDKQGQLNTVYLKFNPEKQRPTTSLNDPR	0.134
HMHHDQQQITAELARIARNGLPGLTADNAIISRLDALNLLINIHDDRGADATPLRGLLPAIADELLRLT	-0.273
HMTKGDRIKARREELGLTQTDLAEAISSTKQNIYKYENNIISNIPSDKVEAIAEVLKISPAYLMGWGDE	0.0302
HMAGPVLTPEEAEVLRILADHGEMTVDNISAEGKMSAAVVLRGLGVLSAYGLVAPGGPGRWRSE	-0.253
